From patent CN118126168A

Key:
indirect ELISA = substrate: 禽流感病毒NP蛋白 (avian influenza virus); experiment: indirect ELISA
[1] = substrate: 禽流感病毒NP蛋白 (avian influenza virus)

B1: 禽流感病毒NP蛋白的单克隆抗体 (antibody, V domains shown)
VH: EVRLQESRPELVEPGASVKISCNASAYTFSDYWMNCVKQSHGKSLECIGDISPTYDRTSYNHKFKGYATLTVDKSSSSAYIELRSLTSDDSAVYYCARGGYGNYRDYWGKRTTRTVSS
VL: MKYLLATAAAGILLLAAQPAMADVVMSQTTRTLSVSIEQPASISCKSSQSLLHSDGKSYLNWLLQRPRQSPKCLSYLVSRRDSGVPDRVTGSSSGTDVTLGISSVEAEDLRVYYYWQRTHCPITVGSGTKLDIK
Indirect ELISA
  ELISA titre (dilution still positive) (fold dilution): > 102000
[1]
  试纸条灵敏度 (lowest NP concentration detected): 0.18 µg/mL
